# Values of other authors in publication PMC2662774.
# Tests used:
# [1] = biological target: CXCR4 sY21 P38 peptide 1-38 (Homo sapiens) (UniProt P61073); experiment: NMR titration
# [2] = biological target: CXCR4 1-38 (sY21 P38) 1-38 (Homo sapiens) (UniProt P61073); experiment: NMR
# Sequence of SDF-1α (P48061 24-88): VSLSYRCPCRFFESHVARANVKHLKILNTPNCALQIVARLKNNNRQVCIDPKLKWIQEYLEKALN
substance,measurement,setting,value
SDF-1α (from UniProt P48061),Kd,[1],1300 nM
same,Kd,[2],1300 nM
